The target of assay [1] is αVβ3 and αVβ5 integrins on M21 human melanoma cells (human) (UniProt P06756). Briefly: 125-I Fab saturation binding to M21 cells, n = 7.
Assay [2] deals with αvβ3 and αvβ5 integrins on A375S2 human melanoma cells (human) (UniProt P06756). Briefly: 125-I Fab saturation binding to A375S2 cells, n = 6.
In assay [3] the target is αVβ3 and αVβ5 integrins on M21 human melanoma cells (human) (UniProt P06756). Briefly: 125-I antibody saturation binding to M21 cells, n = 8.
Assay [4] deals with αvβ3 and αvβ5 integrins on A375S2 human melanoma cells (human) (UniProt P06756). Briefly: cell-based or functional assay.
Assay [5] shares this target. Briefly: 125-I antibody saturation binding to A375S2 cells, n = 7.
For assay [6] the target is unchanged. Briefly: radiolabelled antibody binding to A375S2 cells, n = 4.
The target of assay [7] is αVβ3 and αVβ5 integrins on M21 human melanoma cells (human) (UniProt P06756). Briefly: radiolabelled antibody binding to M21 cells, n = 2.
Assay [8] has as its target αvβ5 integrin on HT-29 human colon carcinoma cells (human) (UniProt P06756). Briefly: radiolabelled antibody binding to HT-29 cells, n = 1.
The target in assay [9] is αvβ3 and αvβ5 integrins on A375S2 human melanoma cells (human) (UniProt P06756). Briefly: radiolabelled antibody binding to A375S2 cells, n = 2.

αvβ3 and αvβ5 integrins on A375S2 human melanoma cells (human), sequence (P06756 31-1048 A375S, chain 1 of 3): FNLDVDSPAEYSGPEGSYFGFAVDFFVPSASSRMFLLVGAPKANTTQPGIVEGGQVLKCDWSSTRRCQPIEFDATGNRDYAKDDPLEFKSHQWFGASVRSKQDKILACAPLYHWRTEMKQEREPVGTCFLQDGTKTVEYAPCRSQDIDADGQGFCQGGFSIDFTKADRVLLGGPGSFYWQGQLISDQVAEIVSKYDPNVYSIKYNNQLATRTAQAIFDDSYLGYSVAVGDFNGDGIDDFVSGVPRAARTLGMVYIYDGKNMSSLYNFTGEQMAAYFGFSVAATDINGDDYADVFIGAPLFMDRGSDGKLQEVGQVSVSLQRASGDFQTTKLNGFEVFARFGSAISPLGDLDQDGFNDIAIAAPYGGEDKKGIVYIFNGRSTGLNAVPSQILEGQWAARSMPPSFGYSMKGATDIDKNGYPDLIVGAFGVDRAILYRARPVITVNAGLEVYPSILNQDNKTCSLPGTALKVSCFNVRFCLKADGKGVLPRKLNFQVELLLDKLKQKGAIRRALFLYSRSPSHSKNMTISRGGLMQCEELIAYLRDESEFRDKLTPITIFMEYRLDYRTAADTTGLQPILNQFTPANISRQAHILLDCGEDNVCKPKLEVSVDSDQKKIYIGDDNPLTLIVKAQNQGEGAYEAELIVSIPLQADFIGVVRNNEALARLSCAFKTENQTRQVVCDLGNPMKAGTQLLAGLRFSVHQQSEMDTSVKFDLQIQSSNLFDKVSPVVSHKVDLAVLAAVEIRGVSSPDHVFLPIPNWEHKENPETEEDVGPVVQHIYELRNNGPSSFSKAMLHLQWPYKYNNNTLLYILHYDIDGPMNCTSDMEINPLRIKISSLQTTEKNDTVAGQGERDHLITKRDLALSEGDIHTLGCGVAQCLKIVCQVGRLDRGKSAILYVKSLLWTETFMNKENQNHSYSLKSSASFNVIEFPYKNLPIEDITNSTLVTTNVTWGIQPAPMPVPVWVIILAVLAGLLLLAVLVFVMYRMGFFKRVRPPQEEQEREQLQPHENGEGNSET
αvβ3 and αvβ5 integrins on A375S2 human melanoma cells (human), sequence (P05106 27-788, chain 2 of 3, further chain): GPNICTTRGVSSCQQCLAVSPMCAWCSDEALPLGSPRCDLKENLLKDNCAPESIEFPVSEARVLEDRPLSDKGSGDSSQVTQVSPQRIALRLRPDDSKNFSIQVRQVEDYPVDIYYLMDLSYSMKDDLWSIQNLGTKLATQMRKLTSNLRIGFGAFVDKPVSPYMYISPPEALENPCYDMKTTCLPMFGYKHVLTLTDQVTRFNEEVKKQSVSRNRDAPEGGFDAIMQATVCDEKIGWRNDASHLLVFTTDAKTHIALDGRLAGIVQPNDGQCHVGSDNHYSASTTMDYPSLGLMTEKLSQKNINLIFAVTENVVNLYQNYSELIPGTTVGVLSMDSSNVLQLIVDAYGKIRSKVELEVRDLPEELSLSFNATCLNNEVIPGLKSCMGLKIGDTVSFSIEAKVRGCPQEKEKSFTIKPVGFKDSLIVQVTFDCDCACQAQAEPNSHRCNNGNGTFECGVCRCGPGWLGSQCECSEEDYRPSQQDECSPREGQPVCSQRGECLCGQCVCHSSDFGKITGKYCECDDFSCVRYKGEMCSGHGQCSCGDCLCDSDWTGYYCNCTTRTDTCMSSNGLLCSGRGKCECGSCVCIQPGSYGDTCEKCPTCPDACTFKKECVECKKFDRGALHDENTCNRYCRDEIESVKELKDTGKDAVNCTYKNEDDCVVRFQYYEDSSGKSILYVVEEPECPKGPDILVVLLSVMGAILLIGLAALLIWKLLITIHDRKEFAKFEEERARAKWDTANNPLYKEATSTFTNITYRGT
αvβ3 and αvβ5 integrins on A375S2 human melanoma cells (human), sequence (P18084 24-799, chain 3 of 3, further chain): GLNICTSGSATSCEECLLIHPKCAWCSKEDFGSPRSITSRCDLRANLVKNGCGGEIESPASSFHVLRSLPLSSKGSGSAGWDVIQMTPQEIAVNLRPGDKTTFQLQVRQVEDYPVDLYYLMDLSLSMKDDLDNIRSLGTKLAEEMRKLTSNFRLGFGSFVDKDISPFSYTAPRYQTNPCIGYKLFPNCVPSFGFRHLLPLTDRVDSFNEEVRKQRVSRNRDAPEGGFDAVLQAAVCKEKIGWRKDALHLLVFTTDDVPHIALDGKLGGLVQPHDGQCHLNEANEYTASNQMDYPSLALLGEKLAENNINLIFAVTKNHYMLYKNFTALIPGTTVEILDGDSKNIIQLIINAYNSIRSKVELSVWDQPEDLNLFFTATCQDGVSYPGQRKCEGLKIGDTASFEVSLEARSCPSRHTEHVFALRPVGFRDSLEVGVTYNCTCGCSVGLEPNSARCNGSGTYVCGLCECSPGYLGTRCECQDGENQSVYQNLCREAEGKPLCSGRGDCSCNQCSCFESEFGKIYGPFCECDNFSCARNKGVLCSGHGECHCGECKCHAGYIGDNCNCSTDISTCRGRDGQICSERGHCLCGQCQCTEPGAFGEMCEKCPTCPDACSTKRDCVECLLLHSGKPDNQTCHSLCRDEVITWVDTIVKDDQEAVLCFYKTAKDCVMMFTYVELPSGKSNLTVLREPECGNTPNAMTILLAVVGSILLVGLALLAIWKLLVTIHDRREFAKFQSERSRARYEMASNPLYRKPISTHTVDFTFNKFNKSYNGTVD
αvβ5 integrin on HT-29 human colon carcinoma cells (human), sequence (P06756 31-1048, chain 1 of 2): as the sequence (P06756 31-1048 A375S, chain 1 of 3) above, with S345A counted along it
αvβ5 integrin on HT-29 human colon carcinoma cells (human), sequence (P18084 24-799, chain 2 of 2, further chain): as the sequence (P18084 24-799, chain 3 of 3, further chain) above

As to ReoPro (c7E3 Fab), the Receptors per cell (receptors per cell) was 660000 in assay [1] and 370000 in [2].
In assay [3], CNTO 95 (antibody) returned a Receptors per cell (receptors per cell) of 200000. In addition, in assay [4], the A375S.2 cell adhesion to fibrin, percent of adhesion without antibody, antibody at 10 µg/ml is 43.3%; the A375S.2 cell adhesion to fibrinogen, percent of adhesion without antibody, antibody at 10 µg/ml amounted to 11.4%; the A375S.2 cell adhesion to gelatin, percent of adhesion without antibody, antibody at 10 µg/ml is 23.2%; the A375S.2 cell adhesion to vitronectin, percent of adhesion without antibody, antibody at 10 µg/ml was 1.4%. The Receptors per cell (receptors per cell) in assay [5] worked out at 120000.
For the substance P1F6 (antibody), the results for the Receptors per cell (receptors per cell) in [6], in [7] and in assay [8] were 70000, 44000 and 73000, respectively.
The substance LM609 (antibody) registered a Receptors per cell (receptors per cell) in [9] of 300000.

These data come from patent US20090191117A1.
